{"source": "the supplement of paper PMC10567573", "parents": {"B1": {"name": "SCNN1D (parent)", "chain": "FLGHHSFSVRPGTEATISIREDEV"}, "B2": {"name": "HDAC6 (parent)", "chain": "QEGLLDRCVSFQARFAEKEELMLV"}}}
{"variants_of": "B1", "assay": "protein stability index of a GFP-peptide fusion (GPS, HEK-293T) (PSI 1-6); higher = more stable", "settings": "c terminus: a fixed tail appended"}
{"variant": "S18D", "protein stability index": 1.43}
{"variant": "S18E", "protein stability index": 2.49}
{"variant": "S18F", "protein stability index": 1.8}
{"variant": "S18G", "protein stability index": 1.47}
{"variant": "S18H", "protein stability index": 1.33}
{"variant": "S18I", "protein stability index": 1.96}
{"variant": "S18K", "protein stability index": 1.67}
{"variant": "S18L", "protein stability index": 2.2}
{"variant": "S18M", "protein stability index": 1.55}
{"variant": "S18N", "protein stability index": 1.57}
{"variant": "S18P", "protein stability index": 1.8}
{"variant": "S18Q", "protein stability index": 1.79}
{"variant": "S18R", "protein stability index": 2.22}
{"variant": "S18T", "protein stability index": 1.66}
{"variant": "S18V", "protein stability index": 1.25}
{"variant": "S18Y", "protein stability index": 1.71}
{"variant": "I19A", "protein stability index": 2.68}
{"variant": "I19C", "protein stability index": 1.58}
{"variant": "I19D", "protein stability index": 1.92}
{"variant": "I19E", "protein stability index": 1.71}
{"variant": "I19F", "protein stability index": 2.21}
{"variant": "I19G", "protein stability index": 2.6}
{"variant": "I19H", "protein stability index": 1.9}
{"variant": "I19K", "protein stability index": 2.14}
{"variant": "I19L", "protein stability index": 2.16}
{"variant": "I19M", "protein stability index": 1.55}
{"variant": "I19N", "protein stability index": 2.42}
{"variant": "I19P", "protein stability index": 1.89}
{"variant": "I19Q", "protein stability index": 1.99}
{"variant": "I19R", "protein stability index": 2.06}
{"variant": "I19S", "protein stability index": 2.13}
{"variant": "I19T", "protein stability index": 1.74}
{"variant": "I19V", "protein stability index": 2.74}
{"variant": "I19W", "protein stability index": 1.32}
{"variant": "I19Y", "protein stability index": 1.52}
{"variant": "R20A", "protein stability index": 2.3}
{"variant": "R20C", "protein stability index": 2.24}
{"variant": "R20D", "protein stability index": 1.9}
{"variant": "R20E", "protein stability index": 2.1}
{"variant": "R20F", "protein stability index": 3.02}
{"variant": "R20G", "protein stability index": 2.3}
{"variant": "R20H", "protein stability index": 1.67}
{"variant": "R20I", "protein stability index": 2.5}
{"variant": "R20K", "protein stability index": 1.73}
{"variant": "R20L", "protein stability index": 1.52}
{"variant": "R20M", "protein stability index": 1.5}
{"variant": "R20N", "protein stability index": 1.49}
{"variant": "R20P", "protein stability index": 1.79}
{"variant": "R20Q", "protein stability index": 1.79}
{"variant": "R20S", "protein stability index": 2.27}
{"variant": "R20T", "protein stability index": 1.79}
{"variant": "R20V", "protein stability index": 1.65}
{"variant": "R20W", "protein stability index": 1.42}
{"variant": "R20Y", "protein stability index": 1.77}
{"variant": "E21A", "protein stability index": 2.25}
{"variant": "E21C", "protein stability index": 1.68}
{"variant": "E21D", "protein stability index": 1.56}
{"variant": "E21F", "protein stability index": 2.3}
{"variant": "E21G", "protein stability index": 1.33}
{"variant": "E21H", "protein stability index": 1.48}
{"variant": "E21I", "protein stability index": 3.27}
{"variant": "E21K", "protein stability index": 1.44}
{"variant": "E21L", "protein stability index": 2.48}
{"variant": "E21M", "protein stability index": 2.08}
{"variant": "E21N", "protein stability index": 2.11}
{"variant": "E21P", "protein stability index": 2.33}
{"variant": "E21Q", "protein stability index": 1.74}
{"variant": "E21R", "protein stability index": 2.6}
{"variant": "E21S", "protein stability index": 1.8}
{"variant": "E21T", "protein stability index": 2.55}
{"variant": "E21V", "protein stability index": 3.42}
{"variant": "E21W", "protein stability index": 2.45}
{"variant": "E21Y", "protein stability index": 2.52}
{"variant": "D22A", "protein stability index": 1.89}
{"variant": "D22C", "protein stability index": 2.21}
{"variant": "D22E", "protein stability index": 2.11}
{"variant": "D22F", "protein stability index": 1.73}
{"variant": "D22H", "protein stability index": 1.79}
{"variant": "D22I", "protein stability index": 2.39}
{"variant": "D22K", "protein stability index": 2.04}
{"variant": "D22L", "protein stability index": 1.51}
{"variant": "D22M", "protein stability index": 2.45}
{"variant": "D22N", "protein stability index": 2.23}
{"variant": "D22P", "protein stability index": 1.74}
{"variant": "D22Q", "protein stability index": 1.39}
{"variant": "D22R", "protein stability index": 2.4}
{"variant": "D22S", "protein stability index": 1.35}
{"variant": "D22T", "protein stability index": 2.07}
{"variant": "D22V", "protein stability index": 1.57}
{"variant": "D22W", "protein stability index": 1.77}
{"variant": "D22Y", "protein stability index": 3.14}
{"variant": "E23A", "protein stability index": 1.96}
{"variant": "E23C", "protein stability index": 1.88}
{"variant": "E23D", "protein stability index": 2.12}
{"variant": "E23F", "protein stability index": 2.45}
{"variant": "E23G", "protein stability index": 2.29}
{"variant": "E23H", "protein stability index": 2.32}
{"variant": "E23I", "protein stability index": 2.23}
{"variant": "E23K", "protein stability index": 2.38}
{"variant": "E23L", "protein stability index": 1.66}
{"variant": "E23M", "protein stability index": 1.91}
{"variant": "E23N", "protein stability index": 2.1}
{"variant": "E23P", "protein stability index": 1.99}
{"variant": "E23Q", "protein stability index": 1.65}
{"variant": "E23R", "protein stability index": 1.73}
{"variant": "E23S", "protein stability index": 1.06}
{"variant": "E23T", "protein stability index": 1.41}
{"variant": "E23V", "protein stability index": 2.05}
{"variant": "E23W", "protein stability index": 3.12}
{"variant": "E23Y", "protein stability index": 2.54}
{"variant": "V24A", "protein stability index": 1.8}
{"variant": "V24C", "protein stability index": 1.81}
{"variant": "V24D", "protein stability index": 2.15}
{"variant": "V24E", "protein stability index": 2.27}
{"variant": "V24F", "protein stability index": 1.76}
{"variant": "V24G", "protein stability index": 1.9}
{"variant": "V24H", "protein stability index": 1.76}
{"variant": "V24I", "protein stability index": 1.8}
{"variant": "V24K", "protein stability index": 1.93}
{"variant": "V24L", "protein stability index": 1.66}
{"variant": "V24M", "protein stability index": 2.75}
{"variant": "V24N", "protein stability index": 1.99}
{"variant": "V24P", "protein stability index": 1.76}
{"variant": "V24Q", "protein stability index": 2.25}
{"variant": "V24R", "protein stability index": 1.49}
{"variant": "V24S", "protein stability index": 1.62}
{"variant": "V24T", "protein stability index": 1.66}
{"variant": "V24W", "protein stability index": 1.44}
{"variant": "V24Y", "protein stability index": 1.48}
{"variants_of": "B2", "assay": "protein stability index of a GFP-peptide fusion (GPS, HEK-293T) (PSI 1-6); higher = more stable", "settings": "c terminus: a fixed tail appended"}
{"variant": "Q1A", "protein stability index": 1.94}
{"variant": "Q1C", "protein stability index": 1.39}
{"variant": "Q1D", "protein stability index": 1.85}
{"variant": "Q1E", "protein stability index": 2.51}
{"variant": "Q1F", "protein stability index": 1.18}
{"variant": "Q1G", "protein stability index": 1.51}
{"variant": "Q1H", "protein stability index": 1.54}
{"variant": "Q1I", "protein stability index": 2.48}
{"variant": "Q1K", "protein stability index": 1.39}
{"variant": "Q1L", "protein stability index": 2.33}
{"variant": "Q1M", "protein stability index": 1.94}
{"variant": "Q1N", "protein stability index": 1.91}
{"variant": "Q1P", "protein stability index": 2.13}
{"variant": "Q1R", "protein stability index": 1.63}
{"variant": "Q1S", "protein stability index": 2.34}
{"variant": "Q1T", "protein stability index": 1.77}
{"variant": "Q1V", "protein stability index": 1.54}
{"variant": "Q1W", "protein stability index": 1.47}
{"variant": "Q1Y", "protein stability index": 1.25}
{"variant": "E2A", "protein stability index": 1.12}
{"variant": "E2C", "protein stability index": 2}
{"variant": "E2D", "protein stability index": 1.83}
{"variant": "E2F", "protein stability index": 1.77}
{"variant": "E2G", "protein stability index": 2.52}
{"variant": "E2H", "protein stability index": 1.96}
{"variant": "E2I", "protein stability index": 2.12}
{"variant": "E2K", "protein stability index": 1.94}
{"variant": "E2L", "protein stability index": 1.69}
{"variant": "E2M", "protein stability index": 1.62}
{"variant": "E2N", "protein stability index": 1.28}
{"variant": "E2P", "protein stability index": 2.56}
{"variant": "E2Q", "protein stability index": 1.21}
{"variant": "E2R", "protein stability index": 1.95}
{"variant": "E2S", "protein stability index": 2.5}
{"variant": "E2T", "protein stability index": 2.14}
{"variant": "E2V", "protein stability index": 2.44}
{"variant": "E2W", "protein stability index": 1.57}
{"variant": "E2Y", "protein stability index": 1.8}
